The subject of the series is MS2 coat protein. The series is described as follows: apparent KD of MS2 coat protein; designed switch direction (-1 OFF switch, 1 ON switch): 1; higher = weaker reporter binding. The essentials: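 Stalled E. coli RNA polymerase transcribed designed RNA switches on Illumina chips, which were then titrated with SNAP-549-labelled MS2 coat protein, doubling from 0.7 or 1.5 nM to 3 µM. Steps lasted from 0.8–1.5 h at the lowest concentration to 10–20 min at the highest. The apparent KD is each design's median over clusters of curve-fitted normalised fluorescence.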

The mark [1] stands for this setting: input ligand: microRNA oligo, concentration not stated.
Setting [2] is: Eterna round: R95, input ligand: FMN 200 uM.
The mark [3] stands for this setting: Eterna round: R95, input ligand: microRNA oligo, concentration not stated.
Where [4] appears, read: Eterna round: R95, input ligand: none.

For “AAAAAACAUGAGGAUCACCCAUGUAAAAAAAACACAGGAUAUCCCUUUUUUAAAAAAAAAGGAGAAGGGUGAAAAA [Nob's Hobby 7 - Jieux - Same State 1] (Eterna round: R96, puzzle: Same State 1)”, under setting [1], the “apparent KD of MS2 coat protein” value amounted to 0.0364 µM.
Consider “AAACACAUGAGGAUCACCCAUGUAGCGCCAUUGAGGCGCACAUAGGAUAUCCGGUCCAAAAGACCGGAGAAGGGUGAAAGAAAA [Soesen] (Eterna round: R96, puzzle: Same State NG 3)”, for which the “apparent KD of MS2 coat protein” value (input ligand: FMN 200 uM) was 0.125 µM, the “apparent KD of MS2 coat protein” value under setting [1] was 0.166 µM and the “apparent KD of MS2 coat protein” value (input ligand: none) amounted to 0.146 µM.
The matching figures for “AAACGGGCUACAGGAUAUGCUCGAUAAACUUCAGUAGAAGGGUGGCCUUAUCAACGAACAUGAGGAUCACCCAUGUUCUACAAC [Dianrisole] (Eterna round: R96, puzzle: Same State NG 1)”: 0.0772 µM, 0.0283 µM and 0.136 µM.
For “AAACUCGUUGAAGGAUAUCCGGCAGCUAACAAACCGUAACAUGAGGAUCACCCAUGUGUUAGAAAGGAGAAGGUCAGUGACCGG [Eternabot solution 34] (Eterna round: R96, puzzle: Same State NG 2)”, in that order: 0.0172 µM, 0.0159 µM and 0.0223 µM.
The matching figures for “AAAGAAAACGCAGGAUAUACCCGGGAAACCGAGGUAGAAGGGUGAACCAAAACAAAACUAAAUAACAUGAGGAUCACCCAUGUC [Biarzara] (Eterna round: R96, puzzle: Same State NG 1)”: 0.162 µM, 0.0127 µM and 0.132 µM.
On to “AAAGGAUGAUUAUACAUGAGGAUCACCCAUGUUUGUAAUACUAAGGAUAUGUGACUUAAUUGUGAACAGAAGGUAGGUUCAUGA [AK SSNG3-V2-1] (Eterna round: R96, puzzle: Same State NG 3)”, for which the “apparent KD of MS2 coat protein” value is, setting by setting: (input ligand: FMN 200 uM) 0.0568 µM; under setting [1], 0.0436 µM; (input ligand: none) 0.0622 µM.
For “AAAUAAAACACAGGAUAUGCAACCAAAACGGCGGCAGAAGGGUGAGACAUGAGGAUCACCCAUGUACACGUCCCACGGACGUGC [Arorraed] (Eterna round: R96, puzzle: Same State NG 1)”, in that order: 0.392 µM, 0.00943 µM and 0.0884 µM.
For “AAAUAAUAGGCAGGAUAUGGGAAAGGAAGUGUACCAGAAGGGCCGCAACUCAAUACAACAUGAGGAUCACCCAUGUUAGUGUCG [PowerStrip SSNG 1.5] (Eterna round: R96, puzzle: Same State NG 1)”, in that order: 0.0102 µM, 0.0149 µM and 0.0157 µM.
Turning to “AACAAUCUAUCUGAGGAUAUCAUGAAAAAAACAUGAGGAUCACCCAUGUGCAGGAAAACUGCAUAUGAGAAGGCAGAUAGAUUGG [salish99_SS2_r3_003] (Eterna round: R96, puzzle: Same State 2)”, the “apparent KD of MS2 coat protein” value under setting [1] was determined as 0.494 µM.
Regarding “AACAAUCUAUCUGAGGAUAUCAUGAAAAAAACAUGAGGAUCACCCAUGUGCAGGAAAACUGCAUAUGAGAAGGCAGAUAGAUUGG [salish99_SS2_r3_003] (puzzle: Same State 2)”, the “apparent KD of MS2 coat protein” value is 0.0232 µM under setting [2], 0.589 µM under setting [3] and 0.814 µM under setting [4].
For “AACAAUCUAUCUGAGGAUAUCAUGAAAUAAACAUGAGGAUCACCCAUGUGCAGGAAAACUGCAUAUGAGAAGGCAGAUAGAUUGA [salish99_ss2_r3_x] (puzzle: Same State 2)”, the “apparent KD of MS2 coat protein” value is 0.0495 µM under setting [2], 0.605 µM under setting [3] and 1.06 µM under setting [4].
In the case of “AACAAUCUAUCUGAGGAUAUCAUGAAAUAUACAUGAGGAUCACCCAUGUGCAGGAAAACUGCAUAUGAGAAGGCAGAUAGAUUGA [salish99_ss2_r3_034] (puzzle: Same State 2)”, the “apparent KD of MS2 coat protein” value runs as follows: under setting [2], 0.059 µM; under setting [3], 0.612 µM; under setting [4], 3.19 µM.
The matching figures for “AACAAUUUAUCUGAGGAUAUCAUGAAAUAAACAUGAGGAUCACCCAUGUGCAGGAAAACUGCAUAUGAGAAGGCAGAUAGAUUGA [salish99_ss2_r3_023] (puzzle: Same State 2)”: 0.0535 µM, 0.821 µM and 1.89 µM.
As to “AACAGUCGGCGAGGAUAUGGACGUACAGGUUUGCCUGUGCGGCUCACAUGAGGAUCACCCAUGUUCUAGAAGGCGCCACUGAGA [Lausrein] (Eterna round: R96, puzzle: Same State NG 2)”, the “apparent KD of MS2 coat protein” value (input ligand: FMN 200 uM) was determined as 0.0199 µM, the “apparent KD of MS2 coat protein” value under setting [1] came out at 0.0488 µM and the “apparent KD of MS2 coat protein” value (input ligand: none) stood at 0.0812 µM.
The matching figures for “AACAUGAGGACAUGAACAUGAGGAUCACCCAUGUAUGUUUAUAAGGAUAUAUGAGGAGGAGGAGAAUAGAAGGUAUAGGGAGGG [This also seems to work] (Eterna round: R96, puzzle: Same State NG 3)”: 0.045 µM, 0.0355 µM and 0.0432 µM.
The matching figures for “AACCCAAUGGAAGGAUAUGGCACCUUAUUGGUGCCAGAAGGUCCUAACAUGAGGAUCACCCAUGUGGGCCGGUCGAAAGACCGG [Fiskers NG1ss - 6] (Eterna round: R96, puzzle: Same State NG 1)”: 0.106 µM, 0.306 µM and 0.656 µM.
For “AACCGCGCAGAUGCGCGACAUGAGGAUCACCCAUGUGGCACACAGGAUAUCCUGAACAGCUAUUAGGAGAAGGGUGAAGGCCUC [Oredceti] (Eterna round: R96, puzzle: Same State NG 3)”, in that order: 0.339 µM, 0.0451 µM and 0.127 µM.
With “AAGAAAGUUUACGAGGAUAUGUUCCGCAUAACAUGAGGAUCACCCAUGUGAACAAGAAAGGCGACGCAGAAGGCGUGAGCAAAAG [Mat - Same State 2 - Mod of UCT - D97] (puzzle: Same State 2)”, the “apparent KD of MS2 coat protein” value runs as follows: under setting [2], 0.105 µM; under setting [3], 0.199 µM; under setting [4], 0.412 µM.
The matching figures for “AAGAACAAGCGAAAGGCCCGUCUUAUAUAACAUGAGGAUCACCCAUGUAAGGUGAAAGUUAGAGAGUGGAGGUUGAA [JR_SHM208A_Sub047] (puzzle: Sensor for hsa-mir-208a)”: 0.284 µM, 0.282 µM and 0.34 µM.
Regarding “AAGAUGCUCGUAGGAUAUUGGAAAGGAAGUGUACAAGAAGGACGGUGUCACAUGAGGAUCACCCAUGUUACAGUCUAAUGACUG [PowerStrip SSNG 1.1] (Eterna round: R96, puzzle: Same State NG 1)”, the “apparent KD of MS2 coat protein” value came out at 0.0187 µM (input ligand: FMN 200 uM), 0.0535 µM under setting [1] and 0.0614 µM (input ligand: none).
For “AAGCAUGAAAACAUGCAUAAAAAGUUUGUACAUGAGGAUCACCCAUGUAUGUGCAAGCUUUUUGCUCGUCUUGAAAA [JL SD Zipper 5] (Eterna round: R96, puzzle: Sensor for hsa-mir-208a)”, in that order: 0.171 µM, 0.0174 µM and 0.171 µM.
As to “AAGCCUGUAGCACAGGAUAUCCGAGGCAAAACAUGAGGAUCACCCAUGUCAAACGAAAAUCCGAAGGAGAAGGGUGAACAGGCUC [Laarededqu] (puzzle: Same State 2)”, the “apparent KD of MS2 coat protein” value under setting [2] was found to be 0.0109 µM, the “apparent KD of MS2 coat protein” value under setting [3] turned out to be 0.00783 µM and the “apparent KD of MS2 coat protein” value under setting [4] was found to be 0.00824 µM.
For “AAUAGUUGCGGGCAGGAUAUGUAUUAAAAUACAUGAGGAUCACCCAUGUGCGGGUAUAACACCCGACAGAAGGGCCAAUCGCGAC [Mat - Same State 2 - Mod of UCT - D94] (puzzle: Same State 2)”, in that order: 0.0257 µM, 0.216 µM and 0.233 µM.
With “AAUAUAUUAAGUGAGGAUAUCAUAGAAAAAACAUGAGGAUCACCCAUGUGGGAAACCUGGUCGGGUGAGAAGGCACUUAAUAUAU [Samwise Clockwise 29 - Jieux - Same State 2] (Eterna round: R96, puzzle: Same State 2)”, the “apparent KD of MS2 coat protein” value reads like this: (input ligand: FMN 200 uM) 0.0852 µM; under setting [1], 0.823 µM; (input ligand: none) 1.28 µM.
The matching figures for “AAUAUUAAGGCGGACGUUAACCGCAACCGACAUGAGGAUCACCCAUGUGCUUCAAGCUCAGACAUCUCUUAUCGUCA [Arrizareat] (Eterna round: R96, puzzle: Sensor for hsa-mir-208a)”: 0.0843 µM, 0.0594 µM and 0.079 µM.
For “AAUUAAUUAAUUAAGUACAUGAGGAUCACCCAUGUAAGUGAUCAGGAUAUCAGCUCGUUUAGAGCUGAGAAGGGAUCCAUGUAC [SSNG3/15-A3] (Eterna round: R96, puzzle: Same State NG 3)”, in that order: 0.359 µM, 0.297 µM and 0.404 µM.
On to “AAUUCAAACAGAGGAUAUUGUUUAUCUCUAUUGCAAGAAGGCUGAUCUUACUACCCACUUAUGAAACAUGAGGAUCACCCAUGU [JR_SSNG1_Sub018] (Eterna round: R96, puzzle: Same State NG 1)”, for which, under setting [1], the “apparent KD of MS2 coat protein” value was 0.0301 µM.
With “ACAAGCUUUUUGCUCAUCUUAUGUCCGAAACAUGAGGAUCACCCAUGUAUAGAUUAUGUGUUGUUGUAGAUACAAGA [JR_SHM208A_Sub063] (puzzle: Sensor for hsa-mir-208a)”, the “apparent KD of MS2 coat protein” value is, setting by setting: under setting [2], 0.0227 µM; under setting [3], 0.0196 µM; under setting [4], 0.0283 µM.

These data come from the supplement of paper PMC9170038.
